According to patent US20240084017A1 (ASCENDO BIOTECHNOLOGY, published 2024):

Key:
[1] = molecular target: T1, human Mac-1 (integrin αMβ2, CD11b/CD18) (human, UniProt P11215 17-1152; P05107 23-769); assay: flow cytometry, HEK293/Mac-1 cells, PBS/MnCl2 (Mn2+), 10 µg/ml of this antibody; binding of reporter mAb KIM127 read
Description: (§1) The HEK293/Mac-1 cells (clone1-4) were counted and washed twice with staining buffer (PBS containing 1% FBS, and 0.1% sodium azide). Cells were adjusted at a concentration of 1×10⁵ cells/ml in staining buffer and treated with/without 0.25 mM MnCl₂ (Sigma). Cells were treated with anti-Mac-1 antibodies and fluorescent conjugated anti-human IgG4 antibodies and incubated for 15 mins. After washing with the staining buffer, the cells were analyzed by flow cytometry. In some examples, these cells were treated with the antibodies (ICRF44, KIM127, m24, or isotype control) in the presence or absence 10 μg/ml anti-Mac-1 antibodies. The cells were then incubated at 37° C. for 30 min. After washing with the staining buffer, the cells were analyzed by flow cytometry.
(§2) TABLE IV The anti-Mac-1 antibody can serve as an antagonist to reduce the conformational change of Mac-1. HEK293/Mac-1 cells (clone1-4) were incubated with 10 μg/ml anti-Mac-1 antibodies under the PBS/MnCl₂ (Mn²⁺) condition. Binding of KIM127 or m24 was detected using flow cytometry.

[2] = molecular target: T1, human Mac-1 (integrin αMβ2, CD11b/CD18); assay: flow cytometry, HEK293/Mac-1 cells; MFI in PBS over MFI in PBS/MnCl2
Description: as §1
(§3) TABLE II The anti-Mac-1 antibodies selectively bind to different statuses of human Mac-1. HEK293/Mac-1 cells (clone1-4) were incubated in PBS (Mock), or PBS/MnCl₂ (Mn²⁺). Binding of isotype control IgG, the CD11b specific mAb (ICRF44), the CD11b activation-sensing mAb (CBRM1/5), or the screened anti-Mac-1 antibody was detected using flow cytometry.

[3] = molecular target: T1, human Mac-1 (integrin αMβ2, CD11b/CD18); assay: flow cytometry, HEK293/Mac-1 cells (clone 1-4), PBS/MnCl2 (Mn2+)
Description: as §1, §3

[4] = molecular target: T1, human Mac-1 (integrin αMβ2, CD11b/CD18); assay: flow cytometry, HEK293/Mac-1 cells, PBS/MnCl2 (Mn2+), 10 µg/ml of this antibody; binding of reporter mAb m24 read
Description: as §1, §2

[5] = molecular target: T1, human Mac-1 (integrin αMβ2, CD11b/CD18); assay: flow cytometry, HEK293/Mac-1 cells, PBS (Mock), 10 µg/ml of this antibody; binding of reporter mAb m24 read
Description: as §1
(§4) TABLE III The anti-Mac-1 antibodies can serve as agonist to enhance the conformational change of Mac-1. HEK293/Mac-1 cells (clone1-4) were incubated with 10 μg/ml anti-Mac-1 antibodies under the PBS (Mock) condition. Binding of KIM127 or m24 was detected using flow cytometry.

[6] = molecular target: T1, human Mac-1 (integrin αMβ2, CD11b/CD18); assay: flow cytometry, HEK293/Mac-1 cells, PBS (Mock), 10 µg/ml of this antibody; binding of reporter mAb KIM127 read
Description: as §1, §4

[7] = molecular target: T1, human Mac-1 (integrin αMβ2, CD11b/CD18); assay: flow cytometry, HEK293/Mac-1 cells (clone 1-4), PBS (Mock)
Description: as §1, §3

Row | Binder | KIM127 (Expression relative to IgG4) [1] | Mock/Mn^2+ Ratio [2] | Mn^2+ MFI [3] | m24 (Expression relative to IgG4) [4] | m24 (Expression relative to IgG4) [5] | KIM127 (Expression relative to IgG4) [6] | Mock MFI [7]
1 | anti-Mac-1 antibody clone 24G09 (antibody, human IgG4, V domains shown) VH: EVQLVESGGGLVQPGGSLRLSCAASGFTFSDYAIGWVRQAPGKGLEWVSTIYWSGSNAYYADSVKGRFTISRDNSKNTLYLQMNSLRAEDTAVYYCARLFTLGYHGFDVWGQGTLVTVSS VL: DIQMTQSPSSLSASVGDRVTITCRASQSINTYLNWYQQKPGKAPKLLIYDASNLQSGVPSRFSGSGSGTDFTLTISSLQPEDFATYYCQQYDDLPFTFGQGTKVEIK | 0.89 relative to IgG4 | 1.1 | 26900 MFI | 1 relative to IgG4 | 0.72 relative to IgG4 | 1.01 relative to IgG4 | 29500 MFI
2 | anti-Mac-1 antibody clone 24G05 (antibody, human IgG4, V domains shown) VH: EVQLVESGGGLVQPGGSLRLSCAASGFTFTSYWMTWVRQAPGKGLEWVSTIVGGGGEADYADSVKGRFTISRDNSKNTLYLQMNSLRAEDTAVYYCARDYVADNHGAMDYWGQGTLVTVSS VL: DIQMTQSPSSLSASVGDRVTITCRASQGLSSYLNWYQQKPGKAPKLLIYGMSTLQSGVPSRFSGSGSGTDFTLTISSLQPEDFATYYCMQYYHWPYTFGQGTKVEIK | 1.64 relative to IgG4 | 1.25 | 44800 MFI | 3.85 relative to IgG4 | 25 relative to IgG4 | 2.22 relative to IgG4 | 55900 MFI
3 | anti-Mac-1 antibody clone 27A04 (antibody, human IgG4, V domains shown) VH: QVKLQQSGPELVKPGASVKISCKASGYSFTDYNMNWVKQSNGKSLEWIGVINPNYGTTSYNQKFKGKATLTVDQSSSTAYMQLNSLTSEDSAVYYCARTYDYDGDAFAYWGQGTTVTVSS VL: DIELTQSPAIMSASPGEKVTMTCSASSSVSYMHWYQQKSGTSPKRWIYDTSKLASGVPARFSGSGSGTSYSLTISSMEAEDAATYYCQQWSSNPPTFGAGTKLELK | 0.7 relative to IgG4 | 0.91 | 39800 MFI | 0.88 relative to IgG4 | 0.78 relative to IgG4 | 1.05 relative to IgG4 | 36100 MFI
4 | anti-Mac-1 antibody clone 28E07 (antibody, human IgG4, V domains shown) VH: QVQLQQSGPELVKPGASVKISCKASGYSFTDYNMNWVKQSNGKSLEWIGEINPGYGTSRYNQKFKDKATLTVDQSSTTAYMQLNSLTSEDSAVYYCARADVDYGDVMDYWGQGTTVTVSS VL: DIELTQSPAIMSASPGEKVTMTCSASSSVSYMHWYQQKSGTSPKRWIYDTSKLASGVPTRFSGSGSGTSYSLTISSMEAEDAATYYCQQWSSNPPTFGAGTKLELK | 0.65 relative to IgG4 | 0.95 | 56400 MFI | 0.85 relative to IgG4 | 0.63 relative to IgG4 | 0.98 relative to IgG4 | 53400 MFI
5 | anti-Mac-1 antibody clone 27A06 (antibody, human IgG4, V domains shown) VH: QVKLQQSGPELVTPGASVKISCKPSGYSFTDYNMNWVKQSNGKSLEWIGEINPNYGTTRHNQKFKGKASLTVDQSSSTAYMQLISLTSEDSAVYYCARTYDYDEDAFAYWGQGTTVTVSS VL: DIELTQSPAIMSASPGEKVTMTCSASSSVSYMHWYQQKSDTSPKRWIYDTSKLASGVPARFSGSGSGTSYSLTISSMEAEDAATYYCQQWSSNPPTFGAGTKLELK | 0.85 relative to IgG4 | 1.35 | 48000 MFI | 0.88 relative to IgG4 | 0.88 relative to IgG4 | 1.04 relative to IgG4 | 64600 MFI

Now from value to binder:

Row | KIM127 (Expression relative to IgG4) [1] | Mock/Mn^2+ Ratio [2] | Mn^2+ MFI [3] | m24 (Expression relative to IgG4) [4] | m24 (Expression relative to IgG4) [5] | KIM127 (Expression relative to IgG4) [6] | Mock MFI [7] | Binder
6 | 0.71 relative to IgG4 | 1.12 | 50800 MFI | 0.85 relative to IgG4 | 0.64 relative to IgG4 | 1 relative to IgG4 | 56800 MFI | anti-Mac-1 antibody clone 27E12 (antibody, human IgG4, V domains shown) VH: QVQLQQSGTVLARPGASVKMSCKASGYTFTSYWMHWVKQRPGQGLEWIGAIYPGNSDTSYNQKFKGKAKLTAVTSASTAYMELSSLTNEDSAVYYCTRGGGSYEFAYWGQGTTVTVSS VL: DIELTQSPAIMSASPGEKVTMTCSVSSSVSYMYWYQQKPGSSPRLLIYDTSNLASGVPARFSGSGSGTSYSLTISSMEAEDAATYYCQQWSSNPFTFGSGTKLEIK
7 | 0.69 relative to IgG4 | 1.69 | 30600 MFI | 0.62 relative to IgG4 | 0.65 relative to IgG4 | 0.99 relative to IgG4 | 51800 MFI | anti-Mac-1 antibody clone 28D06 (antibody, human IgG4, V domains shown) VH: QVKLQQSGPELVKPGASVKISCKASGYSFTDYNMNWVKQSNGKSLEWIGEINPNYGTTRYNQKFKGKATLTVDQSSSTAYMQLNSLTSEDSAVYYCARPSIYYDYDDAMDYWGQGTTVTVSS VL: DIELTQSPAIMSASPGEKVTMTCSASSSVNYMYWYQQKPGSSPRLLIYDTSNLASGVPVRFSGSGSGTSYSLTISRMEAEDAATYYCQQWITYPPTLTFGAGTKLEIK
8 | 0.87 relative to IgG4 | 1.01 | 1.02e+06 MFI | 0.75 relative to IgG4 | 0.83 relative to IgG4 | 0.9 relative to IgG4 | 1.03e+06 MFI | anti-Mac-1 antibody clone 28E07-HH (antibody, human IgG4, V domains shown) VH: QVQLVQSGAEVKKPGASVKVSCKASGYSFTDYNMNWVRQAPGQGLEWMGEINPGYGTSRYNQKFKDRVTMTRDTSISTAYMELSRLRSDDTAVYYCARADVDYGDVMDYWGQGTLVTVSS VL: EIVLTQSPATLSLSPGERATLSCSASSSVSYMHWYQQKPGQAPRLLIYDTSKLASGIPARFSGSGSGTDFTLTISSLEPEDFAVYYCQQWSSNPPTFGQGTKLEIK
9 | 0.63 relative to IgG4 | 0.91 | 45700 MFI | 0.23 relative to IgG4 | 0.44 relative to IgG4 | 1.11 relative to IgG4 | 41600 MFI | anti-Mac-1 antibody clone H4L2 (antibody, human IgG4, V domains shown) VH: QVQLVQSGAEVKKPGASVKVSCKASGYTFTNYWINWVRQAPGQRLEWMGNIYPSDTYINHNQKFKDRVTITRDTSASTAYMELSSLRSEDTAVYYCARSAYANYFDYWGQGTLVTVSS VL: EIVMTQSPATLSVSPGERATLSCRASQNIGTSIHWYQQKPGQAPRLLIYYASESISGIPARFSGSGSGTEFTLTISSLQSEDFAVYYCQQSDSWPTLTFGQGTKLEIK
10 | 0.87 relative to IgG4 | 1.48 | 37300 MFI | 1.07 relative to IgG4 | 0.88 relative to IgG4 | 1.02 relative to IgG4 | 55200 MFI | anti-Mac-1 antibody clone 28A12 (antibody, human IgG4, V domains shown) VH: QVKLQESGPELVKPGASVKISCKASGYSFTDYNMNWVKQSNGKSLEWIGEINPGYGTSRYNQKFKDKATLTVDQSSSTAYMQLNSLTSEDSAVYYCARADVDYGDTMDYWGQGTTVTVSS VL: DIELTQSPAIMSASPGEKVTMTCSASSSVSDMHWYQQKSGNSPKRWIYDTSKLASGVPVRFSGSGSGTSYSLTISSMEAEDAATYYCQQWSSNPPTFGAGTKLELK
11 | 0.89 relative to IgG4 | 1.05 | 41100 MFI | 1.14 relative to IgG4 | 1 relative to IgG4 | 1.11 relative to IgG4 | 43100 MFI | anti-Mac-1 antibody clone 27G04 (antibody, human IgG4, V domains shown) VH: QVKLQESGPELVKPGASVKISCKASGYSFTDYNMNWVKQSNGKSLEWIGVINPNYGTTSYNQKFKGKATLTVDQSSSTAYMQLNSLTSEDSAVYYCARTFDYDDDAFAYWGQGTTVTVSS VL: DIELTQSPAIMSASPGEKVTITCSASSSVSDMHWYQQKSGTSPKRWIYDTSKLASGVPARFSGSGSGTSYSLTISNMEAEDAATYYCQQWSSNPPTFGAGTKLELK
